Results reported in the supplement of paper PMC9170038.

System: MS2 coat protein
Assay: apparent KD of MS2 coat protein; designed switch direction (-1 OFF switch, 1 ON switch): 1; higher = weaker reporter binding
Summary of the method: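 Designed RNA switches with common flanks were transcribed on Illumina chips by stalled E. coli RNA polymerase and titrated with SNAP-549-labelled MS2 coat protein, from 0.7 or 1.5 nM doubling to 3 µM, in Tris-HCl pH 7.5 buffer with KCl, MgCl2, BSA, DTT, tRNA and Tween-20. Steps lasted 0.8–1.5 h (lowest) to 10–20 min (highest). Titrations ran without input, with 200 uM small-molecule ligand, or with an oligonucleotide input. Normalised cluster fluorescence was curve-fitted, and apparent KD is the per-design median over clusters.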

[1] = input ligand: microRNA oligo, concentration not stated
[2] = Eterna round: R95, input ligand: microRNA oligo, concentration not stated
[3] = Eterna round: R95, input ligand: FMN 200 uM
[4] = Eterna round: R95, input ligand: none

Sequence | apparent KD of MS2 coat protein (input ligand: FMN 200 uM) [µM] | apparent KD of MS2 coat protein [1] [µM] | apparent KD of MS2 coat protein (input ligand: none) [µM] | apparent KD of MS2 coat protein [2] [µM] | apparent KD of MS2 coat protein [3] [µM] | apparent KD of MS2 coat protein [4] [µM]
CUGAGCAAUCAAGGAUAUCACGUCGAUUAGACGUGAGAAGGUGAUCAUAACAUGAGGAUCACCCAUGUAUUACAUGAAGCUCAG [SSNG1/1-A2] (Eterna round: R96, puzzle: Same State NG 1) | 0.975 | 0.692 | 0.74 |  |  | 
ACCGAGAGGCUAGGAUAUUAGGGCAUUUGCAUAUGAGAAGGAGCCAGAUGGCCACAUGAGGAUCACCCAUGUCAACCCUGGACA [Eternabot solution 4] (Eterna round: R96, puzzle: Same State NG 1) | 0.0225 | 0.0129 | 0.0182 |  |  | 
AGGCCAUCAGGAGGAUAUGGCACCUUAUUGGUGCCAGAAGGUCUAACAUGAGGAUCACCCAUGUGGGUGUGGUCGAAAGACCAC [Fiskers NG1(ss) - 5] (Eterna round: R96, puzzle: Same State NG 1) | 0.0999 | 0.0712 | 0.098 |  |  | 
UGUUGUAUUACAGGAUAUCUAUUAUUUUUAUUUAGAGAAGGGUAUUCACAUGAGGAUCACCCAUGUAUAUACGAGGAAGAUGUG [JMF's solution 5] (Eterna round: R96, puzzle: Same State NG 1) |  | 0.0604 |  |  |  | 
ACAUGAGAGAAAGGAUAUCUUGUACCUACAUGUGACAUGAGGAUCACCCAUGUGGUAAGUAUGACGGAGAAGGUUCAGAUAUGU [Equivalance 72 - Jieux - Same State NG 2] (Eterna round: R96, puzzle: Same State NG 2) | 0.0771 | 0.125 | 0.154 |  |  | 
AAAAAACAUGAGGAUCACCCAUGUCAAAAGACGUGAGGAUAUGUACAGACUUCGGUCUGUACAGAAGGCACGAAAA [SS1 - 1037] (Eterna round: R96, puzzle: Same State 1) | 0.0176 | 0.0191 | 0.0269 |  |  | 
GGAGAACAUGAGGAUCACCCAUGUGGAUGGGCGCUAGGAUAUGCGAGAGGGUGGAGAGAAGCAGAAGGAGUGGAUA [JR_SS1_Sub037] (puzzle: Same State 1) |  |  |  | 0.0502 |  | 
GGUCCAGCCUGAGCUGGACAGAAGCAUGUACAUGAGGAUCACCCAUGUCAUGUACAAGCUUUUUGCUCGUCUUAAAA [JL mod - D87 - 1] (puzzle: Sensor for hsa-mir-208a) |  |  |  | 0.0132 | 0.439 | 0.498
GGCUAUCGCGUACGAUAGCUUAAGCAUGUACAUGAGGAUCACCCAUGUCAUGUACAAGCUUUUUGCUCGGCUUAUUG (puzzle: Sensor for hsa-mir-208a) |  |  |  | 0.0143 | 0.119 | 0.132
ACAAGCUUUUCUGUAUUGAAAGGUGGGAUACAUGAGGAUCACCCAUGUUUGUUUGUUUAUUGUUUUCCUCGUCUUAU [JR_SHM208A_Sub089] (puzzle: Sensor for hsa-mir-208a) |  |  |  | 0.0275 | 0.071 | 0.0662
GCUCUGGCGGUAGGAUAUCUAGGAUAUGGGAAAGACUAAGUCUGUAGGUCACCUAACCCAGAAGGAGAGAAGGACCCUGUAAGG [pwkr ssNG2 2FMN + F9.23] (Eterna round: R96, puzzle: Same State NG 2) | 0.021 | 0.0172 | 0.0186 |  |  | 
UCUGCAAGAACAGGAUAUGGGUUCAGAGCGGGAGUGCGCUUUGACACAUGAGGAUCACCCAUGUCCCAGAAGGGUUCAUGCGGC [Eseseste] (Eterna round: R96, puzzle: Same State NG 2) | 0.0627 | 0.484 | 0.364 |  |  | 
AGGUAACAUGAGGAUCACCCAUGUAAGGUGAACGUAGGAUAUCGAAGAGGUAGAGUAGGACGAGAAGGACGAGGAA [JR_SS1_Sub091] (puzzle: Same State 1) |  |  |  | 0.239 | 0.218 | 0.414
UCGGGCGUACUUGCUGACAUGAGGAUCACCCAUGUAAAUGGGAAGGAUAUGGUUCCGUUUCGGUACCAGAAGGUCCUGGGUGCU [salish99_SSNG3_r04_310] (Eterna round: R96, puzzle: Same State NG 3) | 0.459 | 0.748 | 1.03 |  |  | 
GAGUGGUGGAGAGGAUAUACAUUGAUAAUCACUGUAGAAGGUUCUAACAUGAGGAUCACCCAUGUAGGACUAUUCCUGAGAGUU [Parity 53 - Jieux - Same State NG 1] (Eterna round: R96, puzzle: Same State NG 1) | 0.0116 | 0.00989 | 0.012 |  |  | 
GGGCCAGCUUUUGCUGGGCCUUCGCUUGCACAUGAGGAUCACCCAUGUCGUGUACACGCUUCCUGCCCGUCUUGUUU [Photon Torp-19] (puzzle: Sensor for hsa-mir-208a) |  |  |  | 0.0153 | 0.024 | 0.0246

Sequence | apparent KD of MS2 coat protein (input ligand: FMN 200 uM) [µM] | apparent KD of MS2 coat protein [1] [µM] | apparent KD of MS2 coat protein (input ligand: none) [µM] | apparent KD of MS2 coat protein [2] [µM] | apparent KD of MS2 coat protein [3] [µM] | apparent KD of MS2 coat protein [4] [µM]
AAUUAAGAUUAAGGAUAUCACGUCGUUUAGACGUGAGAAGGUGAUCAUAACAUGAGGAUCACCCAUGUAUUACAUGAAUUAAUU [SSNG1/3-B3] (Eterna round: R96, puzzle: Same State NG 1) | 1.04 | 0.284 | 1.19 |  |  | 
ACGCAGCUAGGUGAGGAUAUCGGUGGUAAAACAUGAGGAUCACCCAUGUCCGAAGCUCGGACUUCCGAGAAGGCGCCCGGCUGCA [Velaberi] (puzzle: Same State 2) |  |  |  | 0.0642 | 0.0139 | 0.0962
AGUAGUGUAACAUGAGGAUCACCCAUGUAAGAAGAUGUAACCUAGGAUAUGGAUGUUAUGUUUGACCAGAAGGAGGAUUGUUUA [JR_SSNG3_Sub040] (Eterna round: R96, puzzle: Same State NG 3) | 0.0226 | 0.0321 | 0.0371 |  |  | 
AGUCCAGCCAAAGCUGGACAAAAGCAUGUACAUGAGGAUCACCCAUGUCAUGUACAAGCUUUUUGCUCGUCUUAAUA [Mat - hsa-mir-208a - Mod of JL - D38] (puzzle: Sensor for hsa-mir-208a) |  |  |  | 0.016 | 0.464 | 0.611
ACAUGAGACCGAGGAUAUAUUGUACCUACAUGUGACAUGAGGAUCACCCAUGUGGUAAGUAUGACAUAGAAGGCGGAGAUAUGU [Equivalance 92 - Jieux - Same State NG 2] (Eterna round: R96, puzzle: Same State NG 2) | 0.0196 | 0.0259 | 0.0301 |  |  | 
GUUACAUGAGGAUCACCCAUGUAUGUGUGGGAGUAAGUGUCUUAGGAUAUCUAGUAGUUAAUUUAAGAGAAGGAAGAUUGUUGU [JMF's solution 55] (Eterna round: R96, puzzle: Same State NG 3) | 0.145 | 0.0819 | 0.104 |  |  | 
AAUUUAAUACAUGAGGAUCACCCAUGUAAUACUUGUAAGAUCAAGGAUAUCAGCUCGUUUAGAGCUGAGAAGGUGAUCACAUGU [SSNG3/19-D3] (Eterna round: R96, puzzle: Same State NG 3) |  | 0.0407 |  |  |  | 
GGCUAUCGCGUACGAUAGCUUAGGCAUGUACAUGAGGAUCACCCAUGUCAUGUACAGGCUUUUUGCUCGUCUUAUUG [JL-shm-2.36 JL mod] (puzzle: Sensor for hsa-mir-208a) |  |  |  | 0.0167 | 0.179 | 0.21
AGAAGACAUGAGGAUCACCCAUGUACCUCAUAAGGAGAGAGCGAGGAUAUGUAGAGAGAGAGGGAGCAGAAGGUGUGGGAGGAA [Default title] (Eterna round: R96, puzzle: Same State NG 3) | 0.283 | 0.192 | 0.262 |  |  | 
GUGGUCAGACAUGAGGAUCACCCAUGUGGAAUAAAUAAGGAAUAGGAUAUCGAAUAUAGGAUAUACGAGAAGGGUUGGUUGGUG (Eterna round: R96, puzzle: Same State NG 3) |  | 0.08 |  |  |  | 
GUGUUACAUGAGGAUCACCCAUGUUGUUGUAGAUAAGGAUAUAUGGUAACGAGAGAAAUAAUAGAAGGUAUUAGGC [JR_SS1_Sub061] (puzzle: Same State 1) |  |  |  | 0.0347 |  | 
GCUACCAAAUAAGCCAACAUGAGGAUCACCCAUGUAUGUUGGUAGGAUAUCGUAUGCAAAGCAUACGAGAAGGGCUAAGGUAGC [Mat - Same State NG 3 - JL Mod - D80] (Eterna round: R96, puzzle: Same State NG 3) | 0.0571 | 0.0404 | 0.0525 |  |  | 
GCCGCGUUUCGCGCCUACAUGAGGAUCACCCAUGUUUGUCGGCAGGAUAUCGUCCGCUCUGCGGGCGAGAAGGGCUAUUGUGGU [salish99_SSNG3_R04_027] (Eterna round: R96, puzzle: Same State NG 3) | 0.0288 | 0.017 | 0.0245 |  |  | 
GGUGCAAUAAACGCCUACAUGAGGAUCACCCAUGUAUGUAGGCAGGAUAUCGUUUGCAAAGCAAACGAGAAGGGCUAUAGUACC [Mat - Same State NG 3 - JL Mod - D44] (Eterna round: R96, puzzle: Same State NG 3) | 0.0562 | 0.123 | 0.161 |  |  | 
GCUUCGGCGGUAGGAUAUCUAGGAUAUGGGAAAGACUAAGUCUGUAGGUCACCUAACCCAGAAGGAGAGAAGGACAGGUUCGCC [pwkr ssNG2 2FMN + F9.35] (Eterna round: R96, puzzle: Same State NG 2) | 0.415 | 0.00171 | 0.00198 |  |  | 
